The results in this text go back to US20210388087A1 (Chugai, published 2021).

The target of this test is T1, CD3 epsilon homodimer protein (UniProt P07766 23-126).
T1 construct: also called CD3 (CD3 epsilon)
Description: SPR, CD3 epsilon homodimer on chip, one-arm antibody as analyte.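 Further: surface plasmon resonance at 25 °C with CD3 epsilon homodimer amine-coupled to a CM4 sensor chip, antibody injected as analyte, HBS-EP+ as running buffer.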 Background: SPR reads the build-up and loss of mass on a sensor chip optically.

T1 sequence (P07766 23-126): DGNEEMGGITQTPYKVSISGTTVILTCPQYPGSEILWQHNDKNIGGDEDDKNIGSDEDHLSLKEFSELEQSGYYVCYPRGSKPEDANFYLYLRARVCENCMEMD

B1: CE115HA000 D101A (antibody)
heavy: QVQLVESGGGVVQPGRSLRLSCAASGFTFSNAWMHWVRQAPGKGLEWVAQIKAKSNNYATYYAESVKGRFTISRDDSKNSLYLQMNSLKTEDTAVYYCRYVHYGAYYGVAAWGQGTTVTVSSASTKGPSVFPLAPSSKSTSGGTAALGCLVKDYFPEPVTVSWNSGALTSGVHTFPAVLQSSGLYSLSSVVTVPSSSLGTQTYICNVNHKPSNTKVDKKVEPKSCDKTHTCPPCPAPEAAGGPSVFLFPPKPKDTLMISRTPEVTCVVVDVSHEDPEVKFNWYVDGVEVHNAKTKPREEQYASTYRVVSVLTVLHQDWLNGKEYKCKVSNKALPAPIEKTISKAKGQPREPQVYTLPPSRCELTKNQVSLSCAVKGFYPSDIAVEWESNGQPENNYKTTPPVLDSDGSFFLVSKLTVDKSRWQQGNVFSCSVMHEALHNHYTQKSLSLSPDYKDDDDK
Fc: EPKSSDKTHTCPPCPAPELLGGPSVFLFPPKPKDTLMISRTPEVTCVVVDVSHEDPEVKFNWYVDGVEVHNAKTKPREEQYNSTYRVVSVLTVLHQDWLNGKEYKCKVSNKALPAPIEKTISKAKGQPREPQVCTLPPSRDELTKNQVSLWCLVKGFYPSDIAVEWESNGQPENNYKTTPPVLDSDGSFFLYSKLTVDKSRWQQGNVFSCSVMHEALHNRYTQKSLSLSP
light: DIVMTQSPLSLPVTPGEPASISCRSSQSLVHSNRNTYLHWYQQKPGQAPRLLIYKVSNRFSGVPDRFSGSGSGTDFTLKISRVEAEDVGVYYCGQGTQVPYTFGQGTKLEIKRTVAAPSVFIFPPSDEQLKSGTASVVCLLNNFYPREAKVQWKVDNALQSGNSQESVTEQDSKDSTYSLSSTLTLSKADYEKHKVYACEVTHQGLSSPVTKSFNRGEC
notes: one-arm antibody
B1: the “KD ratio (KD of CE115HA000/KD of altered form)” value turned out to be 0.86.

B2: CE115HA000 D101F (antibody, human IgG1, kappa, L234A L235A, N297A, name in Kabat numbering)
heavy: QVQLVESGGGVVQPGRSLRLSCAASGFTFSNAWMHWVRQAPGKGLEWVAQIKAKSNNYATYYAESVKGRFTISRDDSKNSLYLQMNSLKTEDTAVYYCRYVHYGAYYGVFAWGQGTTVTVSSASTKGPSVFPLAPSSKSTSGGTAALGCLVKDYFPEPVTVSWNSGALTSGVHTFPAVLQSSGLYSLSSVVTVPSSSLGTQTYICNVNHKPSNTKVDKKVEPKSCDKTHTCPPCPAPEAAGGPSVFLFPPKPKDTLMISRTPEVTCVVVDVSHEDPEVKFNWYVDGVEVHNAKTKPREEQYASTYRVVSVLTVLHQDWLNGKEYKCKVSNKALPAPIEKTISKAKGQPREPQVYTLPPSRCELTKNQVSLSCAVKGFYPSDIAVEWESNGQPENNYKTTPPVLDSDGSFFLVSKLTVDKSRWQQGNVFSCSVMHEALHNHYTQKSLSLSPDYKDDDDK
chain: EPKSSDKTHTCPPCPAPELLGGPSVFLFPPKPKDTLMISRTPEVTCVVVDVSHEDPEVKFNWYVDGVEVHNAKTKPREEQYNSTYRVVSVLTVLHQDWLNGKEYKCKVSNKALPAPIEKTISKAKGQPREPQVCTLPPSRDELTKNQVSLWCLVKGFYPSDIAVEWESNGQPENNYKTTPPVLDSDGSFFLYSKLTVDKSRWQQGNVFSCSVMHEALHNRYTQKSLSLSP
light: DIVMTQSPLSLPVTPGEPASISCRSSQSLVHSNRNTYLHWYQQKPGQAPRLLIYKVSNRFSGVPDRFSGSGSGTDFTLKISRVEAEDVGVYYCGQGTQVPYTFGQGTKLEIKRTVAAPSVFIFPPSDEQLKSGTASVVCLLNNFYPREAKVQWKVDNALQSGNSQESVTEQDSKDSTYSLSSTLTLSKADYEKHKVYACEVTHQGLSSPVTKSFNRGEC
notes: one-arm antibody
With B2, the “KD ratio (KD of CE115HA000/KD of altered form)” value is 0.73.
